Earlier results on 1 substance are cited in PMC5067215.

This series concerns the target CD74 (Homo sapiens) (UniProt P04233).
Chain of UniProt P04233 (P04233 73-296): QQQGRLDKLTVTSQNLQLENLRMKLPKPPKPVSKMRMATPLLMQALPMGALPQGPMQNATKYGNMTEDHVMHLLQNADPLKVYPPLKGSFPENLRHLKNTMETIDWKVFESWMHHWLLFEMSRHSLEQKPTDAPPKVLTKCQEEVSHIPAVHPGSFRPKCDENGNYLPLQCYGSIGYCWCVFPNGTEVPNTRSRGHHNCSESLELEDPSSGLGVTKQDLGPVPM

In general, Kd refers to the equilibrium constant for the complex coming apart. Take D-DT (from UniProt P30046): the Kd was 5.42 nM.
